Results as given in patent publication US12059448B2, “Pharmaceutical composition comprising thrombolytic peptide-tetrahydroisoquinoline conjugate” (Lumosa Therapeutics Co., LTD, priority 2019, dated 2024).

Assay: Formulation stability in different pH solutions (Example 2), DC009 assay recovery by HPLC
Assay type: physicochemical
Procedure: DC009 were prepared according to the US Publication Application No. 2016-0083423. The final product was washed repetitively by DCM, THF and ethyl ether several times to increase the purity of the final product. The concentration and purity of DC009 in a solution are determined by HPLC with the following conditions. • Column: alkyl reversed-phase bounded phase column • Mobile Phase (MP): MP A: 0.1% by volume TFA in DI water/MP B: 0.1% by volume TFA in acetonitrile • Detection Wavelength: 214 & 280 nm • Column Temperature: 20-25° C. • Sample Temperature: 10-15° C. • Injection Volume: 10-20 μL • Gradient: MP A and MP B
In Examples 2-6, the stability of each formulation is shown as “assay recovery” or “relative purity level”. Samples at each time point was analyzed by HPLC as described above. For “Assay Recovery”, the % number is calculated by dividing the DC009 concentration at the time point by the DC009 concentration at T=0. For “Relative purity level”, the % number is calculated by (Peak area % of DC009 at Tn/Peak area % of DC009 at T0)*100%. […]
These formulations were stored at 40° C. and 60° C. to evaluate the assay recovery and total impurity. The appearance and stability at each storage condition were recorded at Table 2 and Table 3.

For `C[C@H](NC(=O)[C@@H]1CCCN1)C(=O)N[C@@H](CCCCN)C(=O)NCCCC[C@H](NC(=O)[C@@H]1Cc2cc(O)c(O)cc2C(C)(C)N1)C(=O)O` [DC009, 3S-6,7-dihydroxy-1,1-dimethyl-1,2,3,4-tetrahydro-isoquinoline-3-acyl-Lys(Pro-Ala-Lys)], the “stability of DC009” value (acidic conditions) was “stable” and the “stability of DC009” value (pH between 4 and 5) was “very stable”.
